Test results reported in the nanobody polyreactivity screen of Harvey et al. (2022).

Assay: yeast display, Sf9 membrane polyspecificity reagent, FACS + sequencing; frameworks hold sequencing errors
How it was run: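 A synthetic nanobody library was expressed on Saccharomyces cerevisiae BJ5465 by galactose induction for 36–48 hours. The library was stained for 1 hour at 4 °C with 10% biotinylated, detergent-solubilized Sf9 membrane reagent and enriched with streptavidin microbeads before FACS. Low and high (top ~1%) gates were set on anti-HA fluorescence for expression and streptavidin fluorescence for reagent binding, and each polyreactivity label reflects the gate of origin.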

Sequence	polyreactivity (PSR sort gate)
QVQLVESGGGLVQAGGSLRLSCAASGRIFGYYAMGWYRQAPGKERELVAAISSGGNTNYADSVKGRFTISRDNAKNTVYLQMYSLKPEDTAVFYCAAYHFSFGWIRVDYWGQGTQVTVSS	high polyreactivity
QVQLVESGGGLVQAGGSLRLSCAASGFTFSYYAMGWYRQAPGKERELVAAISSGGSTNYADSVKGRFTISRDNAKNTVYLQMNSLKPEVTAVYYCNVRLYYPTYASMEYWGQGTQVTVSS	low polyreactivity
QVQLVESGGGLVQAAGSVRLSCAASGITFTQYAMGRYRHAPGKESECVAGITFSGSSTYYADSVKGRFTISRDNSKNTVYLQMNSLKPEDTAVYYCAAESWYKYIYGYPRLFDYWGQATQVTVSS	low polyreactivity
QVQLVESGGGLVQAGGSLRLSCAASGSTFYYYAMGWYRQAPGKERELVAAITYSGGGTYYADSVKGRFTISRDNAKNTVYLQMNSLKPEDTAVYYCAKTIAVNTWYYYWGQGTQVTVSS	low polyreactivity
QVQLVESGGRLVQAGGSLRLSCAASGLIYSRYAMGGYRQAPGKEREFVATISWSGGSRYYADSVKGRFTISRDNAKNTVYLQMNSLKPEDTAVYYCATKKWYYPGDSKYYYWGQGTQVTVSS	high polyreactivity
QVQLQESGGGLVQAGGSRRLSCAASGSISNLIAKCWYRQAQGKEREFVAAIGPGANTNYADSVKGRFTISRDNAKNPVYLQMNSRTPEDTAVYYCAVDYYGEAVYHYWGQGTQVTVSS	high polyreactivity
QVQLVESGGGLVQAGGSLRLSCAASGSIIKPYDMGWYIQAPGKERELVAAIRSSGGRTNYADSVKGRFTISRDNAKNTVYLQMNSLKPEDTAVYYCAAGYVSYWYYRYDYWGQGTQVTVSS	high polyreactivity
QVQLVESGGGLVQAGGSLRLSCAASGSTFVRNAMGWYRQAPGKERELVAAITRGGRTYYADSVKGRFTISRDNAKNTVYLQLNSLKPEVTAVYYCAKPSSPSLGGVSDRNYWGQGTQVTVSS	low polyreactivity
QVQLVESGPGLVQAGGSLRLSCASSGFIFRNYPMGWYRHAPGKERELVASISRGTSTNYADSVKGRFTISRDNAKNTVYLQRNSLKPEDTAVYYCNKRFYYHPFDYWGQGTQVTVSS	high polyreactivity
QVQLVESGGGLVQAGGSLRLSCAASGRIFPKYAMGWYRQAPGKERELVATINSGTRTYADSVKGRFTISRDNAKNTVYLEMNSLKPEDTAVYYCARRGYYYDYWGQGTQVTVSS	high polyreactivity
QVQLVESGGGLVQAGGSLSLSCAASGRIFRRYAMGWYRPAPGKERELVASISSGGSTNYADSVKGRFTISRDNAKNTVYLQMNSLKPEDTAVYYCDADRARYYYQAYGAYGYWGQGTQVTVSS	high polyreactivity
QVQLVESGGGLVQAGGSLRLICAASGRIFPGYTMGWYRQAPGKEREFFAAISYSGGSTYADSVKGRFTISRDNAKNTVYLQMNSLKPEDTAVYYCAVVLQHWLDMYYWGQVTQVTVSS	low polyreactivity
QGQLVESGGGLVQGGGSLRLSCAACGSTLPSSARGWYIQAPGKDRELVAALRSGGTTNYADSVKGRFTISRDNAKNTVYVQMNSLKPEDTAVYYCATSRYLYWRSRYDYWGQGTQVTVSS	high polyreactivity
QVQLVESGGGLVQAGGRLRLSCAASGSIFNANAMGWYRHAPGKEREMVAGIRSGSSTNYADSVKGRFTISRDNAKNTVYLQMNSLKPEDTAVYYCATEGYWVYGFDDEYWGQGTQVTVSS	low polyreactivity
QVQLVESGGGLVQAGGSLRLSCAASGSIFVTNGMGWYRQAPGKERELVAVISWGGGNTYYADSVKGRFTISRDNAKNTVYLQMNSLKPEDTAVYYCAVDIWGGEGYDSWGQGTQVTVSS	low polyreactivity
HVQLVESGGGLVQAGGSLRLSCAASGSIFFRNTMGWTRQAPGKEREKVAAITRGGGRTYYADSVKGRFTISRDNAKNTVYLQMNSLQPEDTAVYYCNTADYHGRWAFAWYGDYWGQGTQVTVSS	high polyreactivity
QVQLVESGGGLVQAGGSLRLSCAASGSTFPKYPMGWYRQSPGKERELVASISVTTGSTYYADSVKGRFTISRDNAKHTVYLQMNSLKPEDTAVYYCAKRTYSRKFRGAYNYWGLGTQVTVSS	high polyreactivity
QVQLVESGRGLVPAGGSLRLSCAASGSIFTDYAMGWSRKAPGKERELVATITWSDASTYYTDSVKGRFTISRDNAKNTVYLQMNSLKPEDTAVYYFARRSRYSKGYDYWGQGTQVTVSS	low polyreactivity
QVQLVESGGGLVQAGGSLRLSCAASGRIFQIYAMGWYRQAPGKERELVAAIRSGSNTNYADSVKGRFTISRDNAKNTVYLQMNSLKPEDTAVYYCAADGWYSAVGVWLEYDYWGQGTQVTVSS	low polyreactivity
QVQLVESGGRLVQAGGSLRLSCAASGRIFRYNAMGWYIQAPGKEREFVAAIRGSSSRTYYADSVKGRFTISRDNAKNTVYLQMNSLKPEDTAVYYCNAYVYYSHEDDYWGQGTQVTVSS	high polyreactivity
QVQLVESGGGLVQAGGSLRLSCAASGYIFAGNAMGWYRQAPGKERELVAVITRGGRTYYADSVKGRFTISRDNAKNTVYLQMNSLKPEDTAVYYCAARYPYRGWGQGTQVTVSS	high polyreactivity
QVQLVESGGGLVQAGGSLRLSCAASGIIFQRNDMGWYRQAPGKERELVANIRDGGITYADSVKGRFTISRDNAKNTVYLQMNSLKPEDTAVYYCARDDTSPGYGDQSSNAAYYYWGQGTQVTVSS	low polyreactivity

Sequence	polyreactivity (PSR sort gate)
QVQLVESGGGLVQAGGSLRLLCAASGSTIVTNAMGWYRQAPGKERELVAAITSSDGITYYADSVKGRFTISRDNAKNTVYLQMNSLKPEDTAVYYCAAELVSVRYLYALHDRDYWGQGTQVTVSS	low polyreactivity
QVQLVESGGGLVQAGGSLRLSCAASGRTFALNAMGWSRQAPGKERELVAAISWSSGRTYYADSVKGRFTISRDIAKNTVYLQMNSLKPEDTAVYYCAAYAQKRYYWGQGTQVTVSS	high polyreactivity
QVQLVESAGGLVQAGGSLRLSCADSGSISTVYAMGWYRPAPGKERELVAAISWSGGYTYYADTVKGRFTISRDNEKNTVYLQMNSVKPEDTAFYYCDAEGYLVGSRWGPCYGDYWGQGTQVTGSS	high polyreactivity
QDQLVESGGGLVQAGGSLRLICAASGRIFVYYAMGWYRQAPGKERVLVATISSGGSTYYADSVKGRFTISRDNAKNTVYLQMNSLKPEDTAVYYCAADTDNRDLAYYYKGDYWGQGTQVTVSS	low polyreactivity
QVQLVESGGGLVQAGGSLRLSCAASGFTFIQYAMGWYRQAPGKERELVAAISVSGGSTYYADSVKGRFTISRDNAKNTVYLQMNSLKPEDTAVYYCNTVTSGFLSYDYWGQGTQVTVSS	high polyreactivity
QVQLVESGGGLVQAGGSLRLSCAASGRTFAFYAMGWYRPAPGKERDLVASISSSGDRTYYADSVKGRFTISRDNAKNTVYLQMNSLKPEDTAVYYCNRVEGGAYGSNFDYWGQATQVTVSS	high polyreactivity
QVQLVESGGGLVQAGGSLRLSCAASGRTFQYYAMGWYRQAPGKERELVAAITWTGGSTYYADSVKGRFTISRDNAKNTVYLQKNSLKPEDTAVYYCIARYKTLGSQSRSGPGGKYGYWGQGTQVTVSS	high polyreactivity
QVQLVESGGGLVQAGGSLRLSCAASGSTRRYVMGWYRQAPGKERELVAVISRGGSTYYADSVKGRFTISRDNAKNTVNLQMNSLKPEDTAVYYCNVQPVIPRGGDYWGQGTQVTVSS	high polyreactivity
QVQLVESGGGLVQAGGSLRLSCAASGITFDGYAMGWYRQAPGKERELVAAIRSSGGSTYYADSVKGRFTISRDNAKNTVYLQMNSLKPEDTAVYYCATDKVTVWGWKYDSWGQGTQVTVSS	low polyreactivity
QVQLVESGGGLVQAGGSLRLSCAASGSIFTSNAMGWYRQAPGKERELVAAISRRGSNTFYADSVKGRFTISRDNAKNTVYLQMNSLKPEDTAVYYCNTLVNAISYEYYYWGQGTQVNVSS	high polyreactivity
QVQLVESGGGLVQAGGSLRLSCAASGSIFGRNAMGWYRQAPGKERELVARISSRGGSTYYADSVKGRFTISRDNAKNTVYLQMNSLKPEDTAVYYCNRDRTWQTNDYWGQGTQVTVSS	high polyreactivity
QVQLVESGGGLVQAGGSLRLSCAASGRIFGHYAMGWYRQAPGKERELVAAITIGGSTYYADSVKGRFTISRDNAKNTVYLQMNSLKPEDTAVYYCAKVGSNYRGRLGYWGQGTQVNVSS	low polyreactivity
QVQLVESGGGLVQAGGSLRLSCAASGFTCLFYDMGWYRQAPGKERELVASITWSGTSTYADSVKGRFTISRDNAINTVYLQMNSLKPEDTAVYYCNAEPHGVKVSYDYWGQGTQVTVSS	low polyreactivity
QVQLVESGGGLVQSGGSLRLSCAASGGTFRYNAMGRYRQAPGKERELVAAITSVGITNYADSVKGRFTISRDNAKNTVYLQMNSLNPEDTAVYYCAKRYYRYGARSWYYPYDYWGQGTQVTVSS	high polyreactivity
QVQLVESGAGLVKAGGSLRLSCAASGFSFQRNAMGWYRQAPGKERELVAAINRSGGRTYYADSVKGRFTISRDNAKYTVYLQMNSLKPEDTAVYYCAADSTYEYYFWGQGTQVTVSS	high polyreactivity
QVQLVESGGGLVQAGGSLRLSCAASGSIFTSYAMGWYIPAPGKERELVASISGSGGSTYYADSVKGRFTISRDYSMNTVYLQMNRLKPEVTEVYVCANRCYNGWLRRYYYWGQGTNVTVSS	high polyreactivity
QVQLVESGGGLVQAGGSLRLSCAASGIIFLYYAMGWYRQAPGKERELVAAISSGGSTYYADSVKGRFTISRDNAKNTVYLQMNSLKPEDTAVYYCAARPRKSRAYTALGDYWGQGTQVTVSS	high polyreactivity
QVQLVESGGGLVQAGGSLRLSCAASGSTFDWYVMGWNRQAPGKETELVAAINQGSGSTYYADSVKGRFTISRDNAKNPVYLQMNSLKPEDTAVYYCAADRYGAGYLYWPYDYWGQGTQVTVSS	low polyreactivity
QDQLVESGGGLVQAGGSLRLSCAASGFILKPNAMGWYRQAPGKERELVAAISWSSGSPDYADSVKGRFTISRDNAKNTVYLQMNSLKPEDTAVYYCAADYFVYPDDWYDYWGQGTQVTVSS	low polyreactivity
QVQLVESGGGLVQAGGSLRLSCAASGITFRRYTMGWYIQAPGKERELVATISLSDGNTYYADSVKGRFTISRDNAKNTVYLQMNSLKPEDTAVYYCNARHTWHQTYDYWGQGTQVTVSS	low polyreactivity
QVQLVESGGGLVQAGGSHRLSCAASGSTFGQNAMGCYRQAPGKERELVAAITRRGVSTYYADSVKGRFTISRDNAKNTVYLQMNSLKPEDTAVYYCAKRYHPNSPYDYWGQGTQVTVSS	low polyreactivity
